Results on three molecules are retold here after patent US20250257122A1 (UNITED STATES OF AMERICA AS REPRESENTED BY THE SECRETARY OF …, published 2025).

In test [1] the target is T1, cotton leafroll dwarf virus (CLRDV) N-terminal readthrough domain (^NRTD), purified soluble construct (cotton leafroll dwarf virus (CLRDV), …).
T1 construct: Expressed in E. coli; Calculated MW 26.410 kDa; also called CLRDV ^NRTD; CLRDV ^NRTD (TX)
T1 chain: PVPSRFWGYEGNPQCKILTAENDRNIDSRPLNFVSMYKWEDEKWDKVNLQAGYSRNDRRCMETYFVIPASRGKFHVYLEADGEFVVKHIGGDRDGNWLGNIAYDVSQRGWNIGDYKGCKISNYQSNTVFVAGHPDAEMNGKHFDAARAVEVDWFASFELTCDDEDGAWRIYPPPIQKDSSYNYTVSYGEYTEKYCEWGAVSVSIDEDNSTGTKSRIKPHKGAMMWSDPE
In words: phage display panning and screening (legend of FIG. 3). How it is done:
(§1) Isolation and screening for specific single-chain antibodies was carried out as detailed by K. M. Chow, et al. (2019, “Immunization of Alpacas (Lama pacos) with Protein Antigens and Production of Antigen-specific Single Domain Antibodies,” J. Vis. Exp. (143), e58471. doi: 10.3791/58471). Briefly, alpacas were immunized with ˜400 μg of a mixture of both TX and AL CP or ^NRTD preparations that contained 50% (v/v) of adjuvant. Five subsequent weekly boosting injections were provided using ˜200 μg of the same mixture detailed above. Three to five days after the last injection, 50 mL of blood was collected, and lymphocytes purified. A cDNA library was prepared using oligodT primers and RNA extracted from lymphocytes. A bacteriophage library was obtained from the cDNA library by cloning with restriction enzymes into the phage display vector pMES4. Expression of the insert fused to gene III of the filamentous phage was used for production of the phage solution and single-domain antibody panning. After screening, two single-chain antibodies that recognized the CRLDV CP were identified and named B6 (SEQ ID NO: 8) and E3 (SEQ ID NO: 4) and three single-chain antibodies that recognized the CRLDV ^NRTD were identified and names C12 (SEQ ID NO: 12), A12 (SEQ ID NO: 16), and D12 (SEQ ID NO: 20), respectively.

Test [2] concerns the target T1, cotton leafroll dwarf virus (CLRDV) …. In words: phage display panning and screening. How it is done: as §1

B1: D12 camelid single-chain antibody (VHH)
VHH: QVQLQESGGGLVQAGDSLRLSCAASGRTFNSFAMGWFRQAPGKEREFVAAIKWNGVTTDYADSMKGRFTISRDNAKNTMYLQMNTLKPEDTAIYYCAAKPTWATTNGRPTAYDYWGQGTQVTVSS
notes: Alpaca VHH, cloned into pMES4 and expressed in E. coli; also called D12 single-chain antibody
As for B1, the binding result in test [1] is “binds”.

B2: C12 camelid single-chain antibody (VHH)
VHH: QVQLQESGGGLAQAGDSLRLSCAASGRTFNSFAMGWFRQAPGKEREFVAAIKWNGVTTDYADSMRGRFTISRDNAKNTMYMQMNTLKPEDTAIYYCAAKPTWATTNGRPTAYDYWGQGTQVTVSS
notes: Alpaca VHH, cloned into pMES4 and expressed in E. coli; also called C12 single-chain antibody
As to B2, the binding result in test [2] is “binds”.

B3: A12 camelid single-chain antibody (VHH)
VHH: QVQLQESGGGLAQAGDSLRLSCAASGRTFNSFAMGWFRQAPGKEREFVAAINWNGVTTDYADSMKGRFTISRDNAKNTMYLQMNTLKPEDTAIYYCAAKPTWATTNGRPAAYDYWGQGTQVTVSS
notes: Alpaca VHH, cloned into pMES4 and expressed in E. coli; also called A12 single-chain antibody
On to B3, for which, in test [2], the binding result is on record as “binds”.
